The values that follow come from PMC4363659.

A word on the Kd: it is the free concentration of one partner at which half of the binding sites on the other are occupied at equilibrium, for simple one-to-one binding. A higher Kd goes with a looser complex.

What all share (test): fluorescence polarization
What all share (details): FP: 50 mM Tris/HCl pH 8.0, 150 mM NaCl, 1 mM TCEP, 0.1 mg/ml BSA, 0.5 nM DNA, RT 10 min, EMSA: 10 mM HEPES pH 7.5, 100 mM KCl, 5 mM MgSO4, 5% glycerol
(In general: In fluorescence polarisation assays a small probe gives low polarisation when free and higher when bound to something large.)

For data set [1], the system named is His6::AvrBs3 (Xanthomonas campestris pv. vesicatoria).
The test system of data set [2] is His6::AvrBs3ΔN152 (Xanthomonas campestris pv. vesicatoria).
Data set [3] deals with His6::AvrBs3ΔN152-C16 (Xanthomonas campestris pv. vesicatoria).

For the substance “E1U20 36-bp UPA20 promoter fragment (fluorescein)”, the Kd in data set [1] came to 23.2 nM; in data set [2] it was 99.2 nM; in data set [3], 282 nM.
